Test results from patent US20220332804A1 (CSL INNOVATION, published 2022).

Key:
Experiment in all cases: SPR, antibody captured, C2 as analyte;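 also: biacore SPR at 37 °C, anti-C2 mAbs captured via goat anti-human IgG on CM5 chips, double-referenced sensorgrams fit to a 1:1 kinetic or steady-state model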
human C2 G677A = biological target: T1, human C2 G677A (human, UniProt P06681 21-752)
T1 sequence: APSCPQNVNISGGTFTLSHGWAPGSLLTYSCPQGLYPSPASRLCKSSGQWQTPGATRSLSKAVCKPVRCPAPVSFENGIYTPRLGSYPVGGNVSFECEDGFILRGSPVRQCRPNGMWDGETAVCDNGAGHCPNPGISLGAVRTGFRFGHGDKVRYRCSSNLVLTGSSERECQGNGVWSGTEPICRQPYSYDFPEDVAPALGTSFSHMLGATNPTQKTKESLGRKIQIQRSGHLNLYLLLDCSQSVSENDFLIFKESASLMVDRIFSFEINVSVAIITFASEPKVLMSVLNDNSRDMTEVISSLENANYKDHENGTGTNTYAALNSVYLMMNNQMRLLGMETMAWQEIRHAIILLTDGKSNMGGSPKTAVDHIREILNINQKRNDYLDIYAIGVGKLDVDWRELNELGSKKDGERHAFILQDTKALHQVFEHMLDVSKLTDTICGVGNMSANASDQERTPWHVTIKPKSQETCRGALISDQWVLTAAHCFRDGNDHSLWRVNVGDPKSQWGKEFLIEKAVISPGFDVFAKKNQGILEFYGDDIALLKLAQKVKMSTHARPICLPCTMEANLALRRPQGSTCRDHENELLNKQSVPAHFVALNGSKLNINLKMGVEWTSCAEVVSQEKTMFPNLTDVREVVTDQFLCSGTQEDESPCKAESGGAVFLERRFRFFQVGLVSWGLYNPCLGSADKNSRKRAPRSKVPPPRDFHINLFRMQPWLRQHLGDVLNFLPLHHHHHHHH
Protocol: (§1) Surface plasmon resonance (SPR, Biacore) was used for all binding affinity analyses. In brief, goat anti-human IgG was directly immobilised onto the carboxymethyl dextran surface of CM5 sensorchips to approximately 12,000 RU using standard NHS/EDC chemistry at pH 5. The immobilised antibody surface was pre-conditioned with ten injections of polyclonal human IgG (Privigen 60 s) prepared at 1 μg/mL. Ligands (anti-C2 mAbs) were captured at the beginning of each cycle as described below. An adjacent spot or flow cell in which only Polyclonal IgG was capture was used as a reference surface. The goat anti-human IgG Fc antibody surface was regenerate in 100 mM H3PO4, injected for 45 seconds at the end of each cycle. Experiments were performed at 37° C. and the flow rate of each experiment was kept constant at 30 μL/min.
(§2) Sensogram data was double-referenced against a reference anti-IgG surface (i.e. minus anti-C2 mAb) and blank buffer injections obtained within each experiment. The binding data was fit to 1:1 (kinetic or steady-state) model using local Rmax and null refraction index (RI=0) when appropriate. Buffers and solutions were filtered (0.22 μm) prior to use.

human C2 H446A = biological target: T2, human C2 H446A (human, UniProt P06681 21-752)
T2 sequence: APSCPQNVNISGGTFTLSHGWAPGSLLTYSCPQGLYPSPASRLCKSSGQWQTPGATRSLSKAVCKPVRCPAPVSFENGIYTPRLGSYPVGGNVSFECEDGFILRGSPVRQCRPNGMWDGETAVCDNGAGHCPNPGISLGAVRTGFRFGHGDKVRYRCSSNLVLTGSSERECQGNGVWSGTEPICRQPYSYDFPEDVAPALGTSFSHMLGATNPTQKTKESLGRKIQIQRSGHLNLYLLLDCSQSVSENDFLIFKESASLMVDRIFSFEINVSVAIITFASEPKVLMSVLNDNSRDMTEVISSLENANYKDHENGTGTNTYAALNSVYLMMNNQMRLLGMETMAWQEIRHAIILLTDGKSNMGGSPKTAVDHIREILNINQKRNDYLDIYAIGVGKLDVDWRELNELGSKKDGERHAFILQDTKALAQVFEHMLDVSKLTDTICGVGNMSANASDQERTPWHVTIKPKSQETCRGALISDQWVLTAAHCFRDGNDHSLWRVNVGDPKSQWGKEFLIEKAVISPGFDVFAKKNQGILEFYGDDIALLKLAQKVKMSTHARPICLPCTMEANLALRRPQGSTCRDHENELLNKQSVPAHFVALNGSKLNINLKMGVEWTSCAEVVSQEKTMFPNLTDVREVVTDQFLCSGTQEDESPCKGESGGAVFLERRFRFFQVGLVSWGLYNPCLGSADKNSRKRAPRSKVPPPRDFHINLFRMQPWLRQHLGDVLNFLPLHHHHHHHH
Protocol: as §1, §2

human C2 Y702A = biological target: T3, human C2 Y702A (human, UniProt P06681 21-752)
T3 sequence: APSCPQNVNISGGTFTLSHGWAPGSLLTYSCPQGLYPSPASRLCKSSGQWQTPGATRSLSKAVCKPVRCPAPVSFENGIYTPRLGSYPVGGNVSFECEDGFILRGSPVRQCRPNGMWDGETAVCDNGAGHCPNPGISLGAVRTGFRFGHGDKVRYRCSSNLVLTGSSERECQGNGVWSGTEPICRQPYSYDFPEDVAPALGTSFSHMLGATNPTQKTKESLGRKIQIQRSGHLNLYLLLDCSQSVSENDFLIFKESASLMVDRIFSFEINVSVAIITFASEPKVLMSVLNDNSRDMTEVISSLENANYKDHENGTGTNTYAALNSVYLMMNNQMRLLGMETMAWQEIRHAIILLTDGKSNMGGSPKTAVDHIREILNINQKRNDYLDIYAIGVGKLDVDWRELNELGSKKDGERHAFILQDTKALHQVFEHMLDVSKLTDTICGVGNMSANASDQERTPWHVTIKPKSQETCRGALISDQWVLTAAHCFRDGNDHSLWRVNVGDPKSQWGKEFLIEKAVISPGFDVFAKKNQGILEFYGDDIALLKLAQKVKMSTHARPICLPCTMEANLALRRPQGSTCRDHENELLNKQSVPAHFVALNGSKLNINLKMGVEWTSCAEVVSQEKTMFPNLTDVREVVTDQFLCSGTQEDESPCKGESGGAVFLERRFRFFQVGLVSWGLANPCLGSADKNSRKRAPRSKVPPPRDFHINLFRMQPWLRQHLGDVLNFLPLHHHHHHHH
Protocol: as §1, §2

human C2 N621A = biological target: T4, human C2 N621A (human, UniProt P06681 21-752)
T4 sequence: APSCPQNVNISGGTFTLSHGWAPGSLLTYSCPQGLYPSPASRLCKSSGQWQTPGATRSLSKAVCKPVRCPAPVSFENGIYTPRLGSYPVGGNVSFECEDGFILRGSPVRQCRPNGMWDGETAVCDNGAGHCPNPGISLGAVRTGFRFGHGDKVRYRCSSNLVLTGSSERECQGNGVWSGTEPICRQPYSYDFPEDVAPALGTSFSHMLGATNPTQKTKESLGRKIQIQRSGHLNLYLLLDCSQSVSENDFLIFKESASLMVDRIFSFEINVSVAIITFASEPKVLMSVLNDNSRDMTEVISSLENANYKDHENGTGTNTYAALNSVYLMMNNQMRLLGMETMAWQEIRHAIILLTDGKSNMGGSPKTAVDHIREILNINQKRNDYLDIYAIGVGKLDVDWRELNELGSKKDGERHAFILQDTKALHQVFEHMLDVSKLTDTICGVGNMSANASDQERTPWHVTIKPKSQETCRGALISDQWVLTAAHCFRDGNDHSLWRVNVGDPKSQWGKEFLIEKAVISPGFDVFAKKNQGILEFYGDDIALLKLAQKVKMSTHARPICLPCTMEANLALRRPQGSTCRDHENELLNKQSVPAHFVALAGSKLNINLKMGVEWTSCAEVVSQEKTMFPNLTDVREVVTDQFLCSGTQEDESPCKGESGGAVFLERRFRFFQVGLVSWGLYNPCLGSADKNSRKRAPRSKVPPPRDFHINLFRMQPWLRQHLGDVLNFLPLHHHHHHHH
Protocol: as §1, §2

B1: RF16-226 (antibody, human IgG4 S228P, lambda)
heavy: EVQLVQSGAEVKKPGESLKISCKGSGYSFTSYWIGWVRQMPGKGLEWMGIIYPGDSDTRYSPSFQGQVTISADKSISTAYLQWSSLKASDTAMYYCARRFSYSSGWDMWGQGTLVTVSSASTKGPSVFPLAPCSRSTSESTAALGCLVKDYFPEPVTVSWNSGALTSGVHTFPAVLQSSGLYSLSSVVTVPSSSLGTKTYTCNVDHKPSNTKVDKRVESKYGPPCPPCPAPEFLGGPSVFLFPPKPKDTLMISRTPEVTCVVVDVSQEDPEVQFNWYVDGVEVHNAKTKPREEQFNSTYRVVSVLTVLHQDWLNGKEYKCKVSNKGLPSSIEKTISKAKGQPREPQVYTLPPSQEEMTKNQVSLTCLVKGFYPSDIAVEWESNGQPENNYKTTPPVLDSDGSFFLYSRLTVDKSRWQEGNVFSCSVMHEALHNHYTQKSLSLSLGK
light: SYELTQPPSVSVSPGQTARITCSGDALTSKYVAWYQQKSGLAPLLVIYEDTRRPSGIPAKFSGSSSGSVATLTISGAHGDDEADYYCYSTDASGHQRVFGGGTKLTVLSQPKAAPSVTLFPPSSEELQANKATLVCLISDFYPGAVTVAWKADGSPVKAGVETTKPSKQSNNKYAASSYLSLTPEQWKSHRSYSCQVTHEGSTVEKTVAPTECS
notes: pH-dependent anti-C2 antibody from a phage display library; also called WT
Human C2 G677A
  Kd: 8.7 nM
Human C2 H446A
  Kd: 16.3 nM
Human C2 Y702A
  Kd: 106 nM
Human C2 N621A
  Kd: 51.5 nM
